Source: patent US20040229826A1, “Dose-dense & sequential adjuvant cancer chemotherapy” (priority 2002, published 2004)

Protocol: Designed for outpatients, all chemotherapy (FIG. 1) was given intravenously, starting within 84 days from primary surgery. […]
Disease-free survival (DFS), which was the primary study endpoint, was measured from study entry until local recurrence, distant relapse or death without relapse, whichever occurred first. […] The secondary endpoint of overall survival (OS) was measured from study entry until death from any cause; surviving patients were censored at the date of last contact. […]

B1: filgrastim (protein, chains of the INN, looked up)
chain: MTPLGPASSLPQSFLLKCLEQVRKIQGDGAALQEKLCATYKLCHPEELVLLGHSLGIPWAPLSSCPSQALQLAGCLSQLHSGLFLYQGLLQALEGISPELGPTLDTLQLDVADFATTIWQQMEELGMAPALQPTQGAMPAFASAFQRRAGGVLVASHLQSFLEVSYRVLRHLAQP
Influence of filgrastim
  incidence of leukemia: not influenced
Use of filgrastim in the dose dense regimens
  granulocyte toxicity: statistically significant decrease
